Assay [1] concerns the target mCherry-optoPlexin (chimera of Cry2 at the amino terminus, mCherry, and the intracellular domain of Plexin-B1 at the C terminus) (not stated | mouse) (UniProt Q96524). Nature of the assay: membrane co-recruitment assay (TIRF microscopy); living COS-7 cells co-expressing mVenus-RhoGEF, the mCherry-tagged Cry2 construct and CIB-CAAX; whole-cell blue light; increase of the RhoGEF's fluorescence relative to that of optoPlexin (relative co-recruitment); only cells with at least 30% increase in optoPlexin signal; also with Erlotinib.

The target in assay [2] is farnesylated Cryptochrome interacting basic helix-loop-helix 1 (CIB1-CAAX) (UniProt Q8GY61). Put plainly: light-induced membrane recruitment assay (TIRF microscopy); living COS-7 or MC3T3-E1 cells co-expressing the Cry2 construct and CIB-CAAX; illumination limited to a 5 μm-diameter circle (440 nm); 37 °C.
Assay [3] shares this target. Nature of the assay: light-induced membrane recruitment assay (TIRF microscopy); living COS-7 cells co-expressing the Cry2 construct and CIB1-CAAX at the plasma membrane; whole-cell blue light (440 nm, 50 ms pulses at 10 s intervals); fluorescence after ten pulses normalised to that before illumination; 37 °C.

Sequence of UniProt Q8GY61 (Q8GY61 whole entry): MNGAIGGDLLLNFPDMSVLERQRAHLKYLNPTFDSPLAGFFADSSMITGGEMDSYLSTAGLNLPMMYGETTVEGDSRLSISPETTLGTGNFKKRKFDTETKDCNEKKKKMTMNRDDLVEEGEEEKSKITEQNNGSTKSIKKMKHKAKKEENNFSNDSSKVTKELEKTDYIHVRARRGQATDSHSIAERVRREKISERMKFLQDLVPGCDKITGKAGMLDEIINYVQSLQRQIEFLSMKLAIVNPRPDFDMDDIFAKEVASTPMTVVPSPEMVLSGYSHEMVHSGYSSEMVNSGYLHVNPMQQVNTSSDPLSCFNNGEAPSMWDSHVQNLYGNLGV

The substance “mVenus-PDZ-RhoGEF (mVenus-PRG) (from UniProt O15085 1-1522) (natural protein)” displayed a relative co-recruitment (increase in fluorescence relative to that of optoPlexin) in assay [1] of 26%.

In assay [1], “mVenus-Leukemia-associated RhoGEF (mVenus-LARG) (from UniProt Q9NZN5 1-1544) (natural protein)” came in with a relative co-recruitment (increase in fluorescence relative to that of optoPlexin) of 60%. For the substance “mCherry-optoPlexin (chimera of Cry2 at the amino terminus, mCherry, and the intracellular domain of Plexin-B1 at the C terminus) (from UniProt Q96524 1-612)”, the fold increase of TIRF fluorescence intensity (membrane recruitment) in assay [2] was determined as 4 fold; in assay [3] it was 2 fold.

The record behind these values is publication PMC5482063.
